Source: publication doi:10.1101/2022.09.01.506260

T1: human 14-3-3ε (human), P62258
T1 chain: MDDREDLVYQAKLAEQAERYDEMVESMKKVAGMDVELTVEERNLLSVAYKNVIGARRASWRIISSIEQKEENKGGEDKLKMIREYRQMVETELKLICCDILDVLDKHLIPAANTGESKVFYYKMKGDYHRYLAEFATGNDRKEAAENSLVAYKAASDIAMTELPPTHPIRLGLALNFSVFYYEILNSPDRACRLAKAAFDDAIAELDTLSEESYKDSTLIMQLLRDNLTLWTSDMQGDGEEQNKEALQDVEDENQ


Experiments:
[1] = target: full length CrkII, dimer (CrkII^FL dimer) (human), P46108; experiment: SEC; details: remark: other sources report otherwise
[2] = target: T1, human 14-3-3ε (human), P62258; experiment: crystal structure; details: remark: other sources report otherwise

Binder | percent of the total isolated protein that is dimer [1] | stoichiometry N [1] | stoichiometry N [2]
full length CrkII, dimer (CrkII^FL dimer), P46108-1 1-304 (natural protein) MAGNFDSEERSSWYWGRLSRQEAVALLQGQRHGVFLVRDSSTSPGDYVLSVSENSRVSHYIINSSGPRPPVPPSPAQPPPGVSPSRLRIGDQEFDSLPALLEFYKIHYLDTTTLIEPVSRSRQGSGVILRQEEAEYVRALFDFNGNDEEDLPFKKGDILRIRDKPEEQWWNAEDSEGKRGMIPVPYVEKYRPASASVSALIGGNQEGSHPQPLGGPEPGPYAQPSVNTPLPNLQNGPIYARVIQKRVPNAYDKTALALEVGELVKVTKINVSGQWEGECNGKRGHFPFTHVRLLDQQNPDEDFS | 10% | 2 | –
human 14-3-3ε, P62258-1 1-255 (natural protein) MDDREDLVYQAKLAEQAERYDEMVESMKKVAGMDVELTVEERNLLSVAYKNVIGARRASWRIISSIEQKEENKGGEDKLKMIREYRQMVETELKLICCDILDVLDKHLIPAANTGESKVFYYKMKGDYHRYLAEFATGNDRKEAAENSLVAYKAASDIAMTELPPTHPIRLGLALNFSVFYYEILNSPDRACRLAKAAFDDAIAELDTLSEESYKDSTLIMQLLRDNLTLWTSDMQGDGEEQNKEALQDVEDENQ | – | – | 2
